Assay results published in patent US8013137B2, “Modified enteropeptidase protein” (National University Corporation Hokkaido University, priority 2006, dated 2011).
Substitutions are numbered along the chain they refer to. Names may count otherwise.

B1: Porcine: active recombinant enzyme of the porcine EP serine protease domain (Ile800 to His1034) (protein)
chain: IVGGNDSREGAWPWVVALYYNGQLLCGASLVSRDWLVSAAHCVYGRNLEPSKWKAILGLHMTSNLTSPQIVTRLIDEIVINPHYNRRRKDSDIAMMHLEFKVNYTDYIQPICLPEENQVFPPGRICSIAGWGKVIYQGSPADILQEADVPLLSNEKCQQQMPEYNITENMMCAGYEEGGIDSCQGDSGGPLMCLENNRWLLAGVTSFGYQCALPNRPGVYARVPKFTEWIQSFLH
B2: K63R: Medaka EP-1 protease mutant, substitution K63R (protein)
chain: CGQRQVYNSKENNGVPRVVGGVNAEKGAWPWMVSLHWRGRHGCGASLIGRDWLLTAAHCVYGRNTHLQYWSAVLGLHAQSSMNSQEVQIRQVDRIIINKNYNRRTKEADIAMMHLQQPVNFTEWVLPVCLASEDQHFPAGRRCFIAGWGRDAEGGSLPDILQEAEVPLVDQDECQRLLPEYTFTSSMLCAGYPEGGVDSCQGDSGGPLMCLEDARWTLIGVTSFGVGCGRPERPGAYARVSAFTSWIAETRRSSFSDLD
B3: EP-1: recombinant serine protease domain of Medaka (Oryzias latipes) enteropeptidase-1, wild type, SEQ ID NO: 2 (protein)
chain: VVGGVNAEKGAWPWMVSLHWRGRHGCGASLIGRDWLLTAAHCVYGKNTHLQYWSAVLGLHAQSSMNSQEVQIRQVDRIIINKNYNRRTKEADIAMMHLQQPVNFTEWVLPVCLASEDQHFPAGRRCFIAGWGRDAEGGSLPDILQEAEVPLVDQDECQRLLPEYTFTSSMLCAGYPEGGVDSCQGDSGGPLMCLEDARWTLIGVTSFGVGCGRPERPGAYARVSAFTSWIAETRRSSFSDLD
modifications: Oryzias latipes
B4: E173A: EP-1 with E173A mutation, SEQ ID NO: 4 (protein)
chain: B3 chain with E156A
modifications: Oryzias latipes

Columns and labels:
GD4K-βNA = test: EP activity and kinetic study with specific substrate GD4K-βNA; format: biochemical; conditions: for Km / kcat: substrate GD4K-βna
Experimental: (§1) (A) Active recombinant EP proteases were assayed using a GD4K-βNA (SEQ ID NO: 6) substrate as a substrate. Bovine (Nvg), bovine EP protease available from Novagen; Bovine (Neb), bovine EP protease available from NEB. (B) Active recombinant EP proteases were assayed using various synthetic peptide substrates. (C) Active EP proteases were analyzed by gelatin zymography. (D) Fibronectin (4 μg) was incubated with active EPs (100 ng) at 37° C. for 12 h. (E) Laminin ((10 μg) was incubated with active recombinant EPs (100 ng) at 37° C. for 12 h. (F) Two μg of the control protein containing the D4K site (SEQ ID NO: 1) was incubated with active recombinant EPs (100 ng) at 37° C. for 1 h.
(A) The purity of purified recombinant Medaka EP-1 and EP-2 protease was assessed by SDS-PAGE. Lane 1, Medaka EP fusion protein; lane 2, Medaka EP protease treated with immobilized trypsin; lane 3, Medaka EP protease purified using a resource Q column. (B) The enzyme activities of EP proteases were determined at various pHs using GD4K-βNA (SEQ ID NO: 6) as a substrate. (C) Recombinant Medaka trypsinogen was incubated at 37° C. with EPs for 15, 30 and 45 min. After incubation, samples were analyzed by SDS-PAGE and visualized by CBB staining (upper panel). The relative amount of the active form of Medaka trypsin at each time point were calculated based on the results shown in the upper panel (lower panel). The results are presented as the means (±SD) of three separate experiments.
(§2) EP activity was routinely determined using the specific substrate Gly-Asp-Asp-Asp-Asp-Lys-β-naphthylamide (GD4K-βNA) (SEQ ID NO: 6) (Sigma) according to the method of Mikhailova and Rumsh (Mikhailova et al., FEBS Lett., 442:226-230 (1999)). Enzyme activity for various 4-methylcoumaryl-7-amide (MCA)-containing peptide substrates was determined by the method of Barrett (Barrett et al., J., Biochem. J., 187:909-912 (1980)). For kinetic studies, initial velocities, extrapolated from the plot of product versus time, were transformed into double-reciprocal plots (Lineweaver et al., J. Am. Chem. Soc., 56:658-663 (1934)). The maximum velocities (Vmax) and Km and kcat values were obtained from the intercepts of these plots. For all experiments, the results of at least three separate determinations are shown.

[1] = tested on: recombinant fusion protein of human kallikrein 8 (hK8); test: Cleavage of recombinant fusion protein of human kallikrein 8 (hK8); format: biochemical; conditions: 37° C., 2 h, 100 ng EP
Experimental: (§3) (A) A recombinant fusion protein of Medaka gelatinase A (5 μg) was separately incubated with active EP proteases (100 ng) at 37° C. for 1 h, and analyzed by SDS-PAGE. (B) A recombinant fusion protein of human kallikrein 8 (hK8) (5 μg) was incubated with active EP proteases (100 ng) at 37° C. for 2 h. After incubation, the samples were analyzed by SDS-PAGE (upper panel), or assayed for activity with Pro-Phe-Arg-MCA (middle panel), or Boc-Glu(OBzl)-Ala-Arg-MCA (lower panel). […] The samples were then analyzed by SDS-PAGE/Western blotting using anti-human tPA antibody (upper panel) or anti-His probe antibody (lower panel). The position of sctPA (58- and 61-kDa) detected with the antibodies is shown.
(§4) The effect of Medaka EP serine protease on various fusion proteins containing a D4K-cleavage site (SEQ ID NO: 1) was examined. […]

Pro-Phe-Arg-MCA = test: Activity assay of EP proteases and EP-treated hK8 samples with Pro-Phe-Arg-MCA (FIG. 4B middle); format: biochemical
Experimental: as §3, §2
Next, a 35.5-kDa protein of human kallikrein 8 (hK8) in the same E. coli expression system was synthesized. Digestion with Medaka wild-type and mutant EP proteases generated 31.5-kDa active hK8 by cleaving the D4K sequence (SEQ ID NO: 1) (FIG. 4B, Top). […] The EP protease-treated samples were directly assayed for hK8 activity using Pro-Phe-Arg-MCA, a good synthetic peptide substrate of hK8 (Rajapakse et al., FEBS Lett., 579:6879-6884 (2005)). […] The substrate Boc-Glu(OBzl)-Ala-Arg-MCA, which is slightly cleaved by active hK8, was rapidly hydrolyzed with the samples treated with mammalian, but not Medaka, EP proteases (FIG. 4B, Bottom).

[2] = tested on: GD4K-βNA and the three MCA-containing substrates; test: Specific activities of wild-type and mutant EP protease using synthetic peptide substrates (FIG. 3A); format: biochemical
Experimental: (§5) (A) The specific activities of wild-type (EP-1) and mutant EP protease were determined using synthetic peptide substrates. (B) High-molecular-weight (HMW) kininogen (5 μg) was incubated with active EP proteases (100 ng) at 37° C. for 2 h and analyzed by SDS-PAGE. (C) Fibrinogen (10 μg) was incubated with active EP proteases (100 ng) at 37° C. for 12 h and analyzed by SDS-PAGE.
as §2

[3] = tested on: recombinant Medaka trypsinogen; test: Activation of recombinant Medaka trypsinogen, SDS-PAGE; format: biochemical; conditions: 37° C., 15, 30 and 45 min
[4] = tested on: Boc-Glu(OBzl)-Ala-Arg-MCA, Z-Phe-Arg-MCA, and Pro-Phe-Arg-MCA; test: Amidolytic activity for synthetic MCA-containing peptide substrates (panel); format: biochemical; conditions: FIG. 2B
[5] = Enzyme stability, residual activity using GD4K-βNA; format: physicochemical
Experimental: […] Aliquots of the reaction mixtures were taken at the indicated times for an activity assay using GD4K-βNA (SEQ ID NO: 6) as a substrate. The enzyme activities relative to that at 0-time are shown.
[…] The enzyme activity was measured at various time points (0 to 96 h) using GD4K-βNA (SEQ ID NO: 6) as a substrate.

gelatin = test: Gelatin zymography; format: biochemical; conditions: FIG. 2C
Experimental: as §1, §4

Human plasma fibronectin = test: Hydrolysis of fibronectin, SDS-PAGE; format: biochemical; conditions: 37° C., 12 h, 100 ng EP
Experimental: as §1, §4

mouse laminin = test: Hydrolysis of laminin, SDS-PAGE; format: biochemical; conditions: 37° C., 12 h, 100 ng EP
Experimental: as §1, §4

[6] = tested on: D4K-cleavage site-containing control protein; test: Cleavage of D4K-cleavage site-containing control protein (Novagen); format: biochemical; conditions: 37° C., 1 h, 100 ng EP
Experimental: as §1, §4

[7] = tested on: human high-molecular-weight (HMW) kininogen; test: Hydrolysis of HMW kininogen, SDS-PAGE; format: biochemical; conditions: 37° C., 2 h, 100 ng EP
Experimental: as §5
(§6) The effect of Medaka EP serine protease on various fusion proteins containing a D4K-cleavage site (SEQ ID NO: 1) was examined. Human plasma fibronectin (Chemicon, Temecula, Calif.), human fibrinogen (Merk Biosciences, Tokyo, Japan), human high-molecular-weight (HMW) kininogen (Calbiochem, La Jolla, Calif.), mouse laminin (Biomedical Technologies Inc., Stoughton, Mass.), D4K-cleavage site-containing (SEQ ID NO: 1) control protein (Novagen), Medaka gelatinase A (Ogiwara et al., Proc. Natl. Acad. Sci. USA, 102:8442-8447 (2005)) and trypsinogen (this study), human kallikrein 8 (hK8) (Rajapakse et al., FEBS Lett., 579:6879-6884 (2005)) and human tissue-type plasminogen activator (tPA) were incubated at 37° C. in 20 mM Tris.HCl buffer (pH 7.4) containing 50 mM NaCl and 2 mM CaCl2 with various EP serine proteases at ratios (w/w) ranging from 20:1 to 100:1. After incubation, samples were subjected to SDS-PAGE followed by Coomassie Brilliant Blue staining. […]

human fibrinogen = test: Hydrolysis of fibrinogen, SDS-PAGE; format: biochemical; conditions: 37° C., 12 h, 100 ng EP
Experimental: as §5, §6

[8] = tested on: recombinant fusion protein of Medaka gelatinase A; test: Cleavage of recombinant fusion protein of Medaka gelatinase A; format: biochemical; conditions: 37° C., 1 h, 100 ng EP
[9] = tested on: human single-chain tPA fusion protein; test: Cleavage of human single-chain tPA fusion protein, Western blotting; format: biochemical; conditions: 37° C., 1 h, 100 ng EP

| Molecule | Km (GD4K-βNA) [µM] | kcat (GD4K-βNA) [s⁻¹] | cleavage of hK8 fusion protein [1] | enzyme activity of the EP protease itself with Pro-Phe-Arg-MCA (Pro-Phe-Arg-MCA) | enzyme activity for synthetic peptide substrates compared with the wild-type enzyme [2] | conversion of recombinant Medaka trypsinogen to active trypsin [3] | also measured |
| --- | --- | --- | --- | --- | --- | --- | --- |
| B1 | 400 | 8.83 | extensively degraded the substrate | considerable enzyme activities were detected |  |  |  |
| B2 | 200 | 3.5 |  | none of the Medaka EP proteases (wild-type EP-1, K63R, E173A, or E193A) showed any significant enzyme activity | reduced enzyme activity for synthetic peptide substrates | converted to trypsin as fast as the wild type enzyme |  |
| B3 | 700 | 15.7 |  | none of the Medaka EP proteases (wild-type EP-1, K63R, E173A, or E193A) showed any significant enzyme activity |  | converted to active trypsin by EP-1 faster than by EP-2 | rate of GD4K-βNA cleavage compared with porcine and bovine enzymes (GD4K-βNA; FIG. 2A): at a rate comparable to those of the porcine and bovine enzymes; activity for GD4K-βNA relative to EP-2 (GD4K-βNA; FIG. 8B): approximately three times more active than EP-2; pH of maximal activity for GD4K-βNA (GD4K-βNA; serine protease domain, FIG. 8B): 8; amidolytic activities for synthetic MCA-containing peptide substrates compared with mammalian EP proteases [4]: much lower than those of the EP proteases of mammalian origin; stability of enzyme activity on storage ([5]; 4° C.): the initial enzyme activity was retained at both temperatures for at least six months; loss of enzyme activity ([5]; 37° C., neutral pH, after 4 days of incubation): about 30%; stability of enzyme activity on storage ([5]; −20° C.): the initial enzyme activity was retained at both temperatures for at least six months; hydrolysis of gelatin (gelatin): Little or no hydrolysis; hydrolysis of fibronectin (Human plasma fibronectin): Little or no hydrolysis; hydrolysis of laminin (mouse laminin): Little or no hydrolysis; cleavage of fusion protein containing an EP-cleavage site (Novagen) [6]: specifically cleaved the fusion protein to generate two polypeptides having expected molecular masses of 16- and 32-kDa |
| B4 | 300 | 5.33 | no serious reduction of the D4K (SEQ ID NO: 1) cleaving activity | none of the Medaka EP proteases (wild-type EP-1, K63R, E173A, or E193A) showed any significant enzyme activity | significantly lower activities than the wild-type enzyme toward all the synthetic substrates tested |  | nonspecific proteolytic activity for human HMW kininogen [7]: retained a low nonspecific proteolytic activity; nonspecific proteolytic activity for human fibrinogen (human fibrinogen): retained a low nonspecific proteolytic activity; cleavage of Medaka gelatinase A fusion protein [8]: no serious reduction of the D4K (SEQ ID NO: 1) cleaving activity; cleavage of human single-chain tPA fusion protein [9]: no serious reduction of the D4K (SEQ ID NO: 1) cleaving activity |
